Columns and labels:
MnoR [1] = molecular target: T1, MnoR (Mycobacterium smegmatis, UniProt A0R5L8 1-216); assay: EMSA; 100x polyA instead of salmon sperm DNA; EMSA: 50 mM Tris-HCl (pH not stated), 100 mM NaCl, 10 mM MgCl2, 100 ug/ml BSA, 5% glycerol, 5 nM DNA, 30 min 25 °C, 5% native gel at 4 °C; MST: PBS-T, room temperature, DNA 60 nM (perfect), 15 nM (2MM), 120 nM (4MM); settings: protein: recombinant, tags: N-terminal 6xHis, chain copies: 2, label: 5'-Cy5 on strand 1
T1 sequence: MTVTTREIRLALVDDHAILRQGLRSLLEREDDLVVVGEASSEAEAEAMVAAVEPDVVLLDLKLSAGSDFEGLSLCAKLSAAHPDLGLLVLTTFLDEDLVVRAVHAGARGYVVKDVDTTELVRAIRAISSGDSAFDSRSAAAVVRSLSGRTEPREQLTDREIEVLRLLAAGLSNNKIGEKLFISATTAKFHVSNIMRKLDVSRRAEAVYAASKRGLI

MnoR [2] = molecular target: T1, MnoR; assay: MST; PBS-T; EMSA: 50 mM Tris-HCl (pH not stated), 100 mM NaCl, 10 mM MgCl2, 100 ug/ml BSA, 5% glycerol, 5 nM DNA, 30 min 25 °C, 5% native gel at 4 °C; MST: PBS-T, room temperature, DNA 60 nM (perfect), 15 nM (2MM), 120 nM (4MM); settings: protein: recombinant; tags: N-terminal 6xHis; chain copies: 2; label: 5'-Cy5 on strand 1; blunt

B1: mno 4MM (dsDNA)
DNA 1: CACGCTGATCACGTCCGACGTCGACGAGCGCGACCAGCCGTTCATCACCGGTGAGCGCACCAAGGAAGGCTTCTTCCGCGTGAAGAA
DNA 2: TTCTTCACGCGGAAGAAGCCTTCCTTGGTGCGCTCACCGGTGATGAACGGCTGGTCGCGCTCGTCGACGTCGGACGTGATCAGCGTG
binding result (MnoR [1]; blunt): binds

B2: mno 3MM (dsDNA)
DNA 1: GCTGGAGGAGGCGTTCACCGCTGACTGGCTCGCCCAGCACTCCTAAGCCGGTGGGCGCCGTCACCCGCGGCACCACCGGTTACAACC
DNA 2: GGTTGTAACCGGTGGTGCCGCGGGTGACGGCGCCCACCGGCTTAGGAGTGCTGGGCGAGCCAGTCAGCGGTGAACGCCTCCTCCAGC
binding result (MnoR [1]; blunt): binds

B3: mno perfect motif (dsDNA)
DNA 1: GCCTGAGCGATCTGGGGCTCTGAGCACCCTCGCCCACCGGTGAGCCGCCGGTGGGCGGCCACCCTGCCCGACCGGACAGTTCTGCCG
DNA 2: CGGCAGAACTGTCCGGTCGGGCAGGGTGGCCGCCCACCGGCGGCTCACCGGTGGGCGAGGGTGCTCAGAGCCCCAGATCGCTCAGGC
Kd (MnoR [2]): 2.37 µM

B4: mno 2MM (dsDNA)
DNA 1: ACCTGGCGGATCTGAGCCCGGCAGGCGATCCGCACACCGGTACCGTGCTGGTGGGCGCGAGCCCCGAGTTGCTGGTCGCCCGCGACG
DNA 2: CGTCGCGGGCGACCAGCAACTCGGGGCTCGCGCCCACCAAGCACGGTACCGGTGTGCGGATCGCCTGCCGGGCTCAGATCCGCCAGGT
binding result (MnoR [1]): binds
